From the supplement of paper PMC7877785
± gives the uncertainty stated by the source.

Test: self-splicing fitness, log relative to wild type (ln ratio); higher = more splicing; Tetrahymena group I intron in knt gene, E. coli kanamycin selection, DiMSum; sequences stand for … in CUCUCU…GGAGGGAAAAGUUAUCAGGCAUGCACCUGGUAGCUAGUCUUUAAACCAAUAGAUUGCAUCGGUUUAAAAGGCAAGACCGUCAAAUUGCGGGAAAGGGGUCAACAGCCGUUCAGUACCAAGUCUCAGGGGAAACUUUGAGAUGGCCUUGCAAAGGGUAUGGUAAUAAGCUGACGGACAUGGUCCUAACCACGCAGCCAAGUCCUAAGUCAACAGAUCUUCUGUUGAUAUGGAUGCAGUUCACAGACUAAAUGUCGGUCGGGGAAGAUGUAUUCUUCUCAUAAGAUAUAGUCGGACCUCUCCUUAAUGGGAGCUAGCGGAUGAAGUGAUGCAACACUGGAGCCGCUGGGAACUAAUUUGUAUGCGAAAGUAUAUUGAUUAGUUUUGGAGUACUCGUGGUCG
Summary of the method: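 Fitness was computed with DiMSum as the error-weighted combination of replicate fold changes, kanamycin versus none, each normalised to wild type. The library randomised all eight intron nucleotides of the P1ex region, with the intron placed in the knt kanamycin-resistance gene on pET-22b(+) in E. coli BL21(DE3). Six replicate transformations were grown overnight at 37°C or 30°C on LB agar with or without 25 μg/mL kanamycin, plus 100 μg/mL carbenicillin, 50 μM IPTG and 0.2% rhamnose. Pooled colonies were amplicon-sequenced on an Illumina HiSeq 2500.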

Row | Sequence | self-splicing fitness (ln) (30 °C) | self-splicing fitness (ln) (37 °C)
1 | UGGUAGCAAUAUUACGGCAG | -1.15 ± 0.13 | 0.129 ± 0.17
2 | CCAGAGCAAUAUUACGUCGA | -3.92 ± 0.18 | -3.12 ± 0.17
3 | AUGGAGCAAUAUUACGACGA | – | 0.0911 ± 0.24
4 | UGUAAGCAAUAUUACGCAGC | -3.28 ± 0.35 | -1.44 ± 0.19
5 | GAGCAGCAAUAUUACGGAGG | -3.98 ± 0.21 | -2.3 ± 0.21
6 | UAAAAGCAAUAUUACGCCAU | -3.62 ± 0.26 | -2.82 ± 0.3
7 | UCUUAGCAAUAUUACGGUGA | -0.481 ± 0.1 | 0.15 ± 0.1
8 | AGGAAGCAAUAUUACGCUGA | -2.96 ± 0.23 | -1.97 ± 0.22
9 | AUGGAGCAAUAUUACGUAAG | -2.69 ± 0.2 | -0.735 ± 0.17
10 | CCCCAGCAAUAUUACGAACA | -2.51 ± 0.17 | -2.85 ± 0.28
11 | AGCCAGCAAUAUUACGGCCA | -0.79 ± 0.089 | -0.322 ± 0.11
12 | CUAAAGCAAUAUUACGACAG | 0.277 ± 0.093 | 0.751 ± 0.12
13 | AUGUAGCAAUAUUACGACCA | -0.549 ± 0.17 | -0.552 ± 0.17
14 | UUGGAGCAAUAUUACGCGAU | -2.54 ± 0.33 | -0.423 ± 0.35
15 | AAAAAGCAAUAUUACGUGGU | -3.26 ± 0.11 | -2.74 ± 0.12
16 | GAUUAGCAAUAUUACGGGUU | -2.59 ± 0.16 | -1.14 ± 0.15
17 | CAACAGCAAUAUUACGUCGA | -1.37 ± 0.09 | -0.379 ± 0.077
18 | UGAAAGCAAUAUUACGUUUU | -3.67 ± 0.18 | -3.41 ± 0.35
19 | AUCCAGCAAUAUUACGCGGG | -3.37 ± 0.13 | -2.42 ± 0.17
20 | UUACAGCAAUAUUACGACCA | -0.658 ± 0.14 | -0.854 ± 0.18
21 | GGGCAGCAAUAUUACGACAA | -1.53 ± 0.22 | -0.573 ± 0.18
22 | CGCCAGCAAUAUUACGACCU | -3.15 ± 0.36 | -2.15 ± 0.28
23 | CUUGAGCAAUAUUACGUAAU | -2.79 ± 0.18 | -2.81 ± 0.24
24 | UUCGAGCAAUAUUACGCAGU | -2.87 ± 0.36 | -1.61 ± 0.33

Row | Sequence | self-splicing fitness (ln) (30 °C) | self-splicing fitness (ln) (37 °C)
25 | GGGUAGCAAUAUUACGGUCU | -0.845 ± 0.08 | -0.011 ± 0.11
26 | CGAUAGCAAUAUUACGAUGA | -1.8 ± 0.17 | -0.503 ± 0.2
27 | AUUAAGCAAUAUUACGUUAA | -2.52 ± 0.15 | -1.35 ± 0.12
28 | CCCAAGCAAUAUUACGCGUC | -3.06 ± 0.16 | -2.6 ± 0.29
29 | AGGAAGCAAUAUUACGCCAU | -3.16 ± 0.27 | -2 ± 0.38
30 | UAGUAGCAAUAUUACGCCCA | 0.0306 ± 0.38 | –
31 | AACAAGCAAUAUUACGCAGU | -3.43 ± 0.19 | -1.93 ± 0.16
32 | CGGUAGCAAUAUUACGGUGU | -3.24 ± 0.17 | -2.04 ± 0.17
33 | CACAAGCAAUAUUACGGUUG | -2.5 ± 0.1 | -1.59 ± 0.12
34 | UCUAAGCAAUAUUACGCCAA | -1.47 ± 0.32 | -0.954 ± 0.23
35 | CUAAAGCAAUAUUACGAAGA | -2.46 ± 0.27 | -1.61 ± 0.3
36 | AAAGAGCAAUAUUACGCAUU | -3.61 ± 0.19 | -1.88 ± 0.21
37 | GUGUAGCAAUAUUACGGGUA | -2.39 ± 0.2 | -2.42 ± 0.16
38 | GGACAGCAAUAUUACGGAGG | -3.52 ± 0.15 | -0.672 ± 0.096
39 | AGCAAGCAAUAUUACGGAGG | -4.63 ± 0.46 | -2.28 ± 0.33
40 | CAACAGCAAUAUUACGUAGC | -4.19 ± 0.12 | -2.49 ± 0.12
41 | AUGAAGCAAUAUUACGGGCC | -1.73 ± 0.29 | -0.73 ± 0.22
42 | GGUCAGCAAUAUUACGUAGG | -2.33 ± 0.15 | -1.84 ± 0.18
43 | GGGGAGCAAUAUUACGGAUU | -3.35 ± 0.28 | -2.15 ± 0.23
44 | GUCCAGCAAUAUUACGAUCU | -2.44 ± 0.16 | -0.0861 ± 0.12
45 | UACAAGCAAUAUUACGUCUU | -3.55 ± 0.17 | -1.68 ± 0.13
46 | UACGAGCAAUAUUACGUCAU | -4.92 ± 0.45 | -3.92 ± 0.39
47 | GCUCAGCAAUAUUACGGCUG | -2.99 ± 0.29 | -2.1 ± 0.34
48 | CAUAAGCAAUAUUACGUGUG | -3.56 ± 0.15 | -2.94 ± 0.17
